Results: paper PMC11111093

Molecular target: HA-ADAP (UniProt O15117)
Assay: co-IP; HEK293T co-transfected with HA-ADAP and Flag-RIG-I or Flag-tagged RIG-I truncations, lysates 48 h after transfection; anti-HA immunoprecipitation, anti-Flag blot

Sequence of UniProt O15117 (O15117 whole entry, the tested form may be a part): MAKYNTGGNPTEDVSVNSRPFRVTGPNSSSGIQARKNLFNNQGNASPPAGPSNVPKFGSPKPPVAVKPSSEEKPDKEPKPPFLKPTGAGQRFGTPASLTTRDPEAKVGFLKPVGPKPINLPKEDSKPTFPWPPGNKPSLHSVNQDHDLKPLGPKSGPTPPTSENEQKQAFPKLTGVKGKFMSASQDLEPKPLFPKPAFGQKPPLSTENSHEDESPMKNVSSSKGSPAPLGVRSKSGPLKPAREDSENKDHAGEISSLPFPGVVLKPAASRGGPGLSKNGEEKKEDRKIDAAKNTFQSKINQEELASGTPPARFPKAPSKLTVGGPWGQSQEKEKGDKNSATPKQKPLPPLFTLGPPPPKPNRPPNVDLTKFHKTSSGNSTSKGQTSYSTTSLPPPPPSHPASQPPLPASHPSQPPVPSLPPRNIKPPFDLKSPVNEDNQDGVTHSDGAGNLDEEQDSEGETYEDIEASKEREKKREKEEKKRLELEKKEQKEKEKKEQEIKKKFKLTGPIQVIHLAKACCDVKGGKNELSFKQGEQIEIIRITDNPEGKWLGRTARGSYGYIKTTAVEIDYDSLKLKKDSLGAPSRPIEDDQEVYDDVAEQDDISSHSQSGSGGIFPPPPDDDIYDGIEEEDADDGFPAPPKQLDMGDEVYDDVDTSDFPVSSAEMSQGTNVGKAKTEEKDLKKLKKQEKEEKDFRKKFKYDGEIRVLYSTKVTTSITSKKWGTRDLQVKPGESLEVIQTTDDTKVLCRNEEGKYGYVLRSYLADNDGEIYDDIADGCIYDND

Q: With “Flag-RIG-I helicase domain (aa 239-734) (from UniProt O95786 239-734) (domain or fragment)” as the substance, how does the percent decrease in binding compared to wild-type RIG-I read?
A: 60%
